Assay results reported in PMC8550178, “Enzymatically synthesized exopolysaccharide of a probiotic strain Leuconostoc mesenteroides NTM048 shows adjuvant activity to promote IgA antibody responses” (Gut Microbes, 2021).

Experiments:
Assay in all cases: fructose release, DNS method
Settings in all cases: 20 mM sodium acetate pH 5.5, 1 mM CaCl2, 28°C, 5-200 mM sucrose
Gtf2 = system: T1, Gtf2; type: biochemical, Leuconostoc mesenteroides subsp. mesenteroides
T1 construct: signal peptide removed, C-terminal His6 (pET23b), E. coli BL21(DE3); full-length precursor 1479 residues; draft genome BOPR01000001
Text: fructose release, DNS method on Gtf2

[1] = substrate: OC[C@H]1O[C@@](CO)(O[C@H]2O[C@H](CO)[C@@H](O)[C@H](O)[C@H]2O)[C@@H](O)[C@@H]1O; type: biochemical, Leuconostoc mesenteroides
Text: fructose release, DNS method on LEUM1747

[2] = substrate: OC[C@H]1O[C@@](CO)(O[C@H]2O[C@H](CO)[C@@H](O)[C@H](O)[C@H]2O)[C@@H](O)[C@@H]1O; type: biochemical, Leuconostoc mesenteroides; remark: listed apart in the source
Text: fructose release, DNS method on LEUM1752

## OC[C@H]1O[C@@](CO)(O[C@H]2O[C@H](CO)[C@@H](O)[C@H](O)[C@H]2O)[C@@H](O)[C@@H]1O [sucrose]
Gtf2
  Km: 23 mM

B1: LEUM1747 (Leuconostoc mesenteroides subsp. mesenteroides ATCC 8293) (protein)
chain: TPSVLGDSSVPDVSANNVQSASDNTTDTQQNTTVTEENDKVQSAATNDNVTTAASDTTQSADNNVTEKQSDDHALDNEKVDNKQDEVAQTNVTSKDEESAVASTDTDPAETTTDETQQVSGKYVEKDGSWYYYFDDGKNAKGLSTIDNNIQYFDESGKQVKGQYVTIDNQTYYFDKDSGDELTGLQSIDGNIVAFNDEGQQIFNQYYQSENGTTYYFDDKGHAATGIKNIEGKNYYFDNLGQLKKGFSGVIDGQIMTFDQETGQEVSNTTSEIKEGLTTQNTDYSEHNAAHGTDAEDFENIDGYLTASSWYRPTDILRNGTDWEPSTDTDFRPILSVWWPDKNTQVNYLNYMADLGFISNADSFETGDSQSLLNEASNYVQKSIEMKISAQQSTEWLKDAMAAFIVTQPQWNETSEDMSNDHLQNGALTYVNSPLTPDANSNFRLLNRTPTNQTGEQAYNLDNSKGGFELLLANDVDNSNPVVQAEQLNWLYYLMNFGTITANDADANFDGIRVDAVDNVDADLLQIAADYFKLAYGVDQNDATANQHLSILEDWSHNDPLYVTDQGSNQLTMDDYVHTQLIWSLTKSSDIRGTMQRFVDYYMVDRSNDSTENEAIPNYSFVRAHDSEVQTVIAQIVSDLYPDVENSLAPTTEQLAAAFKVYNEDEKLADKKYTQYNMASAYAMLLTNKDTVPRVYYGDLYTDDGQYMATKSPYYDAINTLLKARVQYVAGGQSMSVDSNDVLTSVRYGKDAMTASDTGTSETRTEGVGVIVSNNAELQLEDGHTVTLHMGAAHKNQAYRALLSTTADGLAYYDTDENAPVAYTDANGDLIFTNESIYGVQNPQVSGYLAVWVPVGAQQDQDARTASDTTTNTSDKVFHSNAALDSQVIYEGFSNFQAFATDSSEYTNVVIAQNADQFKQWGVTSFQLAPQYRSSTDTSFLDSIIQNGYAFTDRYDLGYGTPTKYGTADQLRDAIKALHASGIQAIADWVPDQIYNLPEQELATVTRTNSFGDDDTDSDIDNALYVVQSRGGGQYQEMYGGAFLEELQALYPSLFKVNQISTGVPIDGSVKITEWAAKYFNGSNIQGKGAGYVLKDMGSNKYFKVVSNTEDGDYLPKQLTNDLSETGFTHDDKGIIYYTLSGYRAQNAFIQDDDNNYYYFDKTGHLVTGLQKINNHTYFFLPNGIELVKSFLQNEDGTIVYFDKKGHQVFDQYITDQNGNAYYFDDAGVMLKSGLATIDGHQQYFDQNGVQVKDKFVIGTDGYKYYFEPGSGNLAILRYVQNSKNQWFYFDGNGHAVTGFQTINGKKQYFYNDGHQSKGEFIDADGDTFYTSATDGRLVTGVQKINGITYAFDNTGNLITNQYYQLADGKYMLLDDSGRAKTGFVLQDGVLRYFDQNGEQVKDAIIVDPDTNLSYYFNATQGVAVKNDYFEYQGNWYLTDANYQLIKGFKAVDDSLQHFDEVTGVQTKDSALISAQGKVYQFDNNGNAVSA
notes: signal peptide removed, C-terminal His6 (pET23b), E. coli BL21(DE3)
[1]
  Km: 2.5 × 10^1 ± 0.2 mM
  kcat/Km: 1400 M⁻¹ s⁻¹

B2: LEUM1752 (Leuconostoc mesenteroides subsp. mesenteroides ATCC 8293) (protein)
chain: DVSQNNGVVVATAVDQSNLDATTSDKSITTDDKAATTAATSTDDKATTTVATSTDDKDTTTAATSTDDKATTTVATSTDDKATTTAATSTDDKAATTAATSTDDKAATTAATSTDDKAATTADTSTDDKAATTAATSTDDKATTTAATSTDDKTATTVGTSDNNNSATASDKDVSSSAQKSQTIDNNSKTADTTAALEASSKNLKTIDGKTYYYDDDDQVKKNFATVIDGKVLYFDKETGALADTNDYQFLEGLTSENNTYTEHNASVGTSSDSYTNVDGYLTADSWYRPKDILVNGQNWESSKDDDLRPLLMTWWPDKATQVNYLNAMKYLDATETETVYTSDDSQDALNKAAQNIQVKIEEKISQEGQTQWLKDDISKFVDSQSNWNIASESKGTDHLQGGALLYVNSDKTPDANSDYRLLNRTPTNQTGTPLYTTDPTQGGYDFLLANDVDNSNPVVQAEQLNWMYYLLNFGSITNNDADANFDSIRVDAVDNVDADLLQIAADYFKAAYGVDKSDAISNQHVSILEDWSDNDAEYVKDNGDNQLSMDNKLRLSLKYSLTMPAVDQYGNKRSGLEPFLTNSLVDRTNDSTDNTAQPNYSFVRAHDSEVQTVIAEIIKQRIDPDSDGLSPTMDQLTEAFKIYNADQLKTDKEFTQYNIPSTYATILTNKDTVPRVYYGDMYTDDGQYMATKSLYYDAIDTLLKSRIKYVSGGQTMSMKYMQGDSSMAADSYRGILTSVRYGNGAMTATDAGTNETRTQGIAVIESNNPDLKLSSTDQVVVDMGIAHKNQAYRPALLTTKDGIDTYVSDSDVSQSLIRYTNSNGQLIFNSSDIVGTANPQVSGYLAVWVPVGASDTQDARTESSTATTADGQTLHSNAALDSQVIYESFSNFQSTPTTEAEYANVQIANNTDLYKSWGITNFEFPPQYRSSTDSSFLDSIIQNGYAFTDRYDLGFNTPTKYGTVDQLRTAIKALHATGIKAMADWVPDQIYNLTGKEVVAVQRVNNSGIYNQDSVINKTLYASQTVGGGEYQALYGGEFLDEIKKLYPSLFEKNQISTGVPMDASEKIKEWSAKYFNGTNIQGRGAYYVLKDWATNEYFKVSTSSNSSVFLPKQLTNEESNTGFISTDGGMTYYSTSGYQAKDTFIQDDKSNWYYFDKNGYMTYGFQTVNDNNYYFLPNGIELQDAILEDSKGNVYYFNQYGKQAVDGYYMLANKTWRYFDKNGVMANAGLTTVTVDGQEHIQYFDKNGIQVKGTSVKDADGKLRYFDTDSGDMVTNRFGENTDGTWSYFGADGIAVTGAQTISGQKLFFDADGQQIKGKEATDKKGKVHYYDANSGEMITNRFEKLSDGSWAYFNKKGNIVTGAQVINGQHLFFESNGNQVKGREYTATDGKMRYYDADSGDMVTNRFERISDGSWAYFGANGVAVTGEQNINGQQLYFDANGHQVKGAAVTQADGSQKYYDANSGEMIKS
notes: as for B1
[2]
  Km: 1.9 × 10^1 ± 0.1 mM
  kcat/Km: 1300 M⁻¹ s⁻¹
